Measured values taken from article PMC5180085.

Columns and labels:
[1] = molecular target: T1, BamHI restriction endonuclease (UniProt P23940 1-213); test: mwPIFE; 5 mM Ca2+; mwPIFE, room temp, 30 min: BamHI 10 mM Tris-HCl pH 8, 100 mM KCl, 0.02% Triton X-100, 0.1 mg/ml BSA, 5 mM EDTA/MgCl2/CaCl2; Ku 35 mM Tris-Cl pH 7.9, 5.5% glycerol, 150 mM KCl, 1 mM EDTA, 0.1 mM DTT, 1.5 mM imidazole; XPF/ERCC1 10 mM Tris-Cl pH 8, 10 mM NaCl. FA: 10 mM Tris-HCl pH 8, 10 mM NaCl, 10% glycerol, 1 mM TCEP, 50 nM DNA, 25 C; conditions: protein: commercial; chain copies: 2; label: 5' biotin strand 1; 5' Cy3 strand 2; blunt
T1 sequence: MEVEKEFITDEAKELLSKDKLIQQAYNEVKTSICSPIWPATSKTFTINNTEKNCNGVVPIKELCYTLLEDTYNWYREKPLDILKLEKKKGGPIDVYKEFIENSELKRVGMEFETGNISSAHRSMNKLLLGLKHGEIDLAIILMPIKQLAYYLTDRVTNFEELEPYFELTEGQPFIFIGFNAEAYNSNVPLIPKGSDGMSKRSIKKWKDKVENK

[2] = molecular target: T2, XPF (truncated);ERCC1 (truncated) (human;human, UniProt Q92889;P07992 640-916;93-297, |); test: fluorescence anisotropy; mwPIFE, room temp, 30 min: BamHI 10 mM Tris-HCl pH 8, 100 mM KCl, 0.02% Triton X-100, 0.1 mg/ml BSA, 5 mM EDTA/MgCl2/CaCl2; Ku 35 mM Tris-Cl pH 7.9, 5.5% glycerol, 150 mM KCl, 1 mM EDTA, 0.1 mM DTT, 1.5 mM imidazole; XPF/ERCC1 10 mM Tris-Cl pH 8, 10 mM NaCl. FA: 10 mM Tris-HCl pH 8, 10 mM NaCl, 10% glycerol, 1 mM TCEP, 50 nM DNA, 25 C; conditions: protein: recombinant;recombinant, tags: none;GST-His6 N-terminal, removed by TEV, copies: 1;1
T2 sequence 1: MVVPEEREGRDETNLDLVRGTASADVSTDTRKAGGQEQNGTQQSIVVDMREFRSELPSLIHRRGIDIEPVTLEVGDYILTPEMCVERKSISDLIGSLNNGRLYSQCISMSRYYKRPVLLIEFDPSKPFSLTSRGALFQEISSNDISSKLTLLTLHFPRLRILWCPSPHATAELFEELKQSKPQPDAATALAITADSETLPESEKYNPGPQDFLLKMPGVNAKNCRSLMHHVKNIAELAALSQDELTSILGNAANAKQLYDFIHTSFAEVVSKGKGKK
T2 sequence 2: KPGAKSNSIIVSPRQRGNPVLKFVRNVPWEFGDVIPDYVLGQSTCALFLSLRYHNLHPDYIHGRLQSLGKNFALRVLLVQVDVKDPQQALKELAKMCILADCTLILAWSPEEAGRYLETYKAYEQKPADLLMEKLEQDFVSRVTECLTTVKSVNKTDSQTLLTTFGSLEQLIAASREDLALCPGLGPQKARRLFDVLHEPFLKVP

Ku70;Ku80 [3] = molecular target: T3, Ku70;Ku80 (human;human, UniProt P12956;P13010 1-609;1-732, |); test: mwPIFE; internal Cy3, lower PIFE than terminal; mwPIFE, room temp, 30 min: BamHI 10 mM Tris-HCl pH 8, 100 mM KCl, 0.02% Triton X-100, 0.1 mg/ml BSA, 5 mM EDTA/MgCl2/CaCl2; Ku 35 mM Tris-Cl pH 7.9, 5.5% glycerol, 150 mM KCl, 1 mM EDTA, 0.1 mM DTT, 1.5 mM imidazole; XPF/ERCC1 10 mM Tris-Cl pH 8, 10 mM NaCl. FA: 10 mM Tris-HCl pH 8, 10 mM NaCl, 10% glycerol, 1 mM TCEP, 50 nM DNA, 25 C; conditions: protein: recombinant;recombinant; tags: ;; copies: 1;1; label: 5' biotin-TEG strand 1; 3' biotin-TEG strand 2; iCy3; blunt; one end free
T3 sequence (P12956 whole entry, chain 1 of 2): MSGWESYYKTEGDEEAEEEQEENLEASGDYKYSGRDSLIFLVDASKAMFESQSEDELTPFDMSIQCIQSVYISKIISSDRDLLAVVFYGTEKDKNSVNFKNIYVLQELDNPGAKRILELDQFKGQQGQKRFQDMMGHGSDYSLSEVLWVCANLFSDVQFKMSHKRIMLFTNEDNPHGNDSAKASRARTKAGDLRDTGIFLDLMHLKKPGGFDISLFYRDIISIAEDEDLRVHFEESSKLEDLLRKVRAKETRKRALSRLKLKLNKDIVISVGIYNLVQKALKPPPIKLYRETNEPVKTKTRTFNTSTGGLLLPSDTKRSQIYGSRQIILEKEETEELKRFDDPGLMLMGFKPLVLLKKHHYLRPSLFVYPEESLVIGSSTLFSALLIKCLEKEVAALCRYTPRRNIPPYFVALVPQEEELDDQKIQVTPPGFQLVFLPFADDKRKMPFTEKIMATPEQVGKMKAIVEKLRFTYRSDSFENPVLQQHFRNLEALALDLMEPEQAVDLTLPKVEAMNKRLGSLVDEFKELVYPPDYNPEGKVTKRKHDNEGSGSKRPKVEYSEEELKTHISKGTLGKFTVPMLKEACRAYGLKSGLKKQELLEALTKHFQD
T3 sequence (P13010 whole entry, chain 2 of 2): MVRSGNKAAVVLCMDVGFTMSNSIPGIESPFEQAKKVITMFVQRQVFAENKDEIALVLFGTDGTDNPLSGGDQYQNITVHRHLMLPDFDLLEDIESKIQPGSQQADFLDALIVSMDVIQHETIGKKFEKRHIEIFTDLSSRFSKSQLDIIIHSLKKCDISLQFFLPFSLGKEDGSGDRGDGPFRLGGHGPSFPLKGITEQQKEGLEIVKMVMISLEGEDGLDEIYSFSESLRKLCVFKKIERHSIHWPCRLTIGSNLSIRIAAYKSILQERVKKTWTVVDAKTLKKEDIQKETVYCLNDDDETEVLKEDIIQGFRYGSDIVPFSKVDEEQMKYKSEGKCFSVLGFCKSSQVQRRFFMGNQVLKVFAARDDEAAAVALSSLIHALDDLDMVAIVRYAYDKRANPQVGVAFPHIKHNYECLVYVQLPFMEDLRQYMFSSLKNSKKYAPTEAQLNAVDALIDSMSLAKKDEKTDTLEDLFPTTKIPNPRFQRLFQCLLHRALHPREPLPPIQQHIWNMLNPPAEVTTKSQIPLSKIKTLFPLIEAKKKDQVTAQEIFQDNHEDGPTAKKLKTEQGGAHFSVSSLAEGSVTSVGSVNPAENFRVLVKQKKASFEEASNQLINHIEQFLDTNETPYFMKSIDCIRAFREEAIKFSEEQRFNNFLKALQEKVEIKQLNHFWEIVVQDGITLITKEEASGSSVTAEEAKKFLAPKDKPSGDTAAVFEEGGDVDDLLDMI

[4] = molecular target: T1, BamHI restriction endonuclease; test: competition; Ca2+; mwPIFE, 1-10x excess; mwPIFE, room temp, 30 min: BamHI 10 mM Tris-HCl pH 8, 100 mM KCl, 0.02% Triton X-100, 0.1 mg/ml BSA, 5 mM EDTA/MgCl2/CaCl2; Ku 35 mM Tris-Cl pH 7.9, 5.5% glycerol, 150 mM KCl, 1 mM EDTA, 0.1 mM DTT, 1.5 mM imidazole; XPF/ERCC1 10 mM Tris-Cl pH 8, 10 mM NaCl. FA: 10 mM Tris-HCl pH 8, 10 mM NaCl, 10% glycerol, 1 mM TCEP, 50 nM DNA, 25 C; conditions: protein: commercial; chain copies: 2; blunt
Ku70;Ku80 [5] = molecular target: T3, Ku70;Ku80; test: mwPIFE; internal Cy3, PIFE falls with distance from free end; mwPIFE, room temp, 30 min: BamHI 10 mM Tris-HCl pH 8, 100 mM KCl, 0.02% Triton X-100, 0.1 mg/ml BSA, 5 mM EDTA/MgCl2/CaCl2; Ku 35 mM Tris-Cl pH 7.9, 5.5% glycerol, 150 mM KCl, 1 mM EDTA, 0.1 mM DTT, 1.5 mM imidazole; XPF/ERCC1 10 mM Tris-Cl pH 8, 10 mM NaCl. FA: 10 mM Tris-HCl pH 8, 10 mM NaCl, 10% glycerol, 1 mM TCEP, 50 nM DNA, 25 C; conditions: protein: recombinant;recombinant; tags: ;; copies: 1;1; label: 5' biotin-TEG strand 1; 3' biotin-TEG strand 2; iCy3; blunt; one end free
Ku70;Ku80 [6] = molecular target: T3, Ku70;Ku80; test: mwPIFE; mwPIFE, room temp, 30 min: BamHI 10 mM Tris-HCl pH 8, 100 mM KCl, 0.02% Triton X-100, 0.1 mg/ml BSA, 5 mM EDTA/MgCl2/CaCl2; Ku 35 mM Tris-Cl pH 7.9, 5.5% glycerol, 150 mM KCl, 1 mM EDTA, 0.1 mM DTT, 1.5 mM imidazole; XPF/ERCC1 10 mM Tris-Cl pH 8, 10 mM NaCl. FA: 10 mM Tris-HCl pH 8, 10 mM NaCl, 10% glycerol, 1 mM TCEP, 50 nM DNA, 25 C; conditions: protein: recombinant;recombinant, tags: ;, copies: 1;1, label: 5' biotin strand 1, blunt
Ku70;Ku80 [7] = molecular target: T3, Ku70;Ku80; test: as above; conditions: protein: recombinant;recombinant; tags: ;; copies: 1;1; label: 5' biotin strand 1; 5' Cy3 strand 2; blunt

B1: C_f/C_r (no BamHI site) (dsDNA)
DNA 1: CACAACGACCACCTAGATAGAGCCAAGCAGTTTACGTACCGTCATTCCCTTCCACGTCATCGAGCTACCGTCGTC
DNA 2: GACGACGGTAGCTCGATGACGTGGAAGGGAATGACGGTACGTAAACTGCTTGGCTCTATCTAGGTGGTCGTTGTG
binding result [1]: no binding

B2: 10ds (dsDNA)
DNA 1: CAGCGCTCGG
DNA 2: CCGAGCGCT
Kd ([2]; 5' overhang 1 nt on strand 1 as printed (meant blunt)): 4750 ± 800 nM

B3: BtnT_15_Cy3_15 (internal Cy3 15 nt from free end) (dsDNA)
DNA 1: TTGCATCCTTCACAACGACCACCTAGATAG
DNA 2: CTATCTAGGTGGTCGTTGTGAAGGATGCAA
modifications: internal Cy3 after nt 15 of strand 1
binding result (Ku70;Ku80 [3]): binds

B4: Btn_25BamHI1_f/Cy3_25BamHI1_r (dsDNA)
DNA 1: CACAACGACCACCTAGATGGATCCA
DNA 2: TGGATCCATCTAGGTGGTCGTTGTG
binding result [1]: binds

B5: B-GC* competitor (one base changed in BamHI site) (dsDNA)
DNA 1: CACAACGCCTGATCCGGCCTAGAT
DNA 2: ATCTAGGCCGGATCAGGCGTTGTG
binding result [4]: no binding

B6: BtnT_15_Cy3_60 (internal Cy3 60 nt from free end) (dsDNA)
DNA 1: TTGCATCCTTCACAACGACCACCTAGATAGAGCCAAGCAGTTTACGTACCGTCATTCCCTTCCACGTCATCGAGC
DNA 2: GCTCGATGACGTGGAAGGGAATGACGGTACGTAAACTGCTTGGCTCTATCTAGGTGGTCGTTGTGAAGGATGCAA
modifications: internal Cy3 after nt 15 of strand 1
binding result (Ku70;Ku80 [5]): binds

B7: Btn_12_f/Cy3_12_r (dsDNA)
DNA 1: TAGATAGAGCCA
DNA 2: TGGCTCTATCTA
binding signal (Ku70;Ku80 [6]): 20 % PIFE

B8: B-GC competitor (substitutions outside site) (dsDNA)
DNA 1: CACAACGCCGGATCCGGCCTAGAT
DNA 2: ATCTAGGCCGGATCCGGCGTTGTG
binding result [4]: binds

B9: Btn_13_f/Cy3_13_r (dsDNA)
DNA 1: CTAGATAGAGCCA
DNA 2: TGGCTCTATCTAG
binding signal (Ku70;Ku80 [6]): ~50 % PIFE

B10: Btn_15_f/Cy3_15_r (dsDNA)
DNA 1: ACCTAGATAGAGCCA
DNA 2: TGGCTCTATCTAGGT
binding signal (Ku70;Ku80 [6]; 5' Cy3 strand 2): ~50 % PIFE
Kd (Ku70;Ku80 [7]): 10 ± 5 nM

B11: Y (splayed arm) (structured_DNA)
DNA 1: CAGCGCTCGGTTTTTTTTTT
DNA 2: TTTTTTTTTTCCGAGCGCTG
Kd ([2]; fork 1:2, 10 bp duplex with two T10 arms): 810 ± 100 nM

CAGCGCTCGGTTTTTTTTTTTTTTTTTTTTCCGAGCGCTG (structured_DNA) [HP (stem-loop)]
Kd ([2]; hairpin): 640 ± 100 nM

B12: scr competitor (no BamHI site) (dsDNA)
DNA 1: CCGTCCAACAGCGAGGCTGATTAAAGAATTCG
DNA 2: CGAATTCTTTAATCAGCCTCGCTGTTGGACGG
binding result [4]: no binding

B13: Btn_11_f/Cy3_11_r (dsDNA)
DNA 1: AGATAGAGCCA
DNA 2: TGGCTCTATCT
binding signal (Ku70;Ku80 [6]): 7 % PIFE

B14: Btn_14_f/Cy3_14_r (dsDNA)
DNA 1: CCTAGATAGAGCCA
DNA 2: TGGCTCTATCTAGG
binding signal (Ku70;Ku80 [6]): ~50 % PIFE
